The data set in a line: protein stability index of a GFP-peptide fusion (yeast GPS) (PSI 1-4); higher = more stable; sorted into four equal gates, so the index is relative within each strain. In a few lines:
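Plasmids isolated from each sorting gate were PCR-amplified and Illumina-sequenced, and barcodes assigned the reads to strains. The gates, four of equal size, were set by GFP/Cherry fluorescence ratio on mid-log cultures in leucine-free medium. These cultures were yeast carrying a pooled library of tiled 17-residue yeast protein peptides fused downstream of GFP on a plasmid that also expresses Cherry. The protein stability index is the sum of every gate's read frequency times its gate number.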

± gives the uncertainty stated by the source.

HRLLQRALFRQLKRWYW [RMP1]: the protein stability index amounted to 2.29 ± 0.18 (doa10∆), 1.2 ± 0.12 (pdr5∆), 1.22 ± 0.17 (san1∆) and 1.35 ± 0.11 (ubr1∆).

With PSTAIHTSPHQPSDVKP [SIR4], the protein stability index was 2.81 ± 0.052 (doa10∆), 2.95 ± 0.049 (pdr5∆), 2.76 ± 0.046 (san1∆) and 2.36 ± 0.034 (ubr1∆).

ETLNDTIERSLIEEEVE [YCS4]: the protein stability index is 3.42 ± 0.14 (doa10∆), 3.43 ± 0.082 (pdr5∆), 3.31 ± 0.056 (san1∆) and 3.33 ± 0.097 (ubr1∆).

For the sequence GTIDKLQLELTIEDIAV [RPO31], the protein stability index is 2.41 ± 0.064 (doa10∆), 2.79 ± 0.057 (pdr5∆), 2.3 ± 0.053 (san1∆) and 2.54 ± 0.046 (ubr1∆).

Regarding PGEYITTIKAIFDGNYG [YMR129W/POM152], the protein stability index reads like this: (doa10∆) 2.62 ± 0.066; (pdr5∆) 2.72 ± 0.071; (san1∆) 2.77 ± 0.069; (ubr1∆) 2.95 ± 0.07.

Consider FYKLNMPDEFNTLYTAI [SRP72], for which the protein stability index stood at 2.5 ± 0.05 (doa10∆), 2.64 ± 0.053 (pdr5∆), 2.66 ± 0.034 (san1∆) and 2.65 ± 0.043 (ubr1∆).

Turning to PTSPNYSPTSPSYSPTS [RPO21], the protein stability index (doa10∆) worked out at 2.78 ± 0.034, the protein stability index (pdr5∆) was 2.9 ± 0.031, the protein stability index (san1∆) turned out to be 3.064 ± 0.026 and the protein stability index (ubr1∆) was determined as 2.969 ± 0.026.

As to EAVDDVFQAKMMDMLKQ [RPN11], the protein stability index was determined as 2.42 ± 0.053 (doa10∆), 2.58 ± 0.058 (pdr5∆), 2.02 ± 0.061 (san1∆) and 2.79 ± 0.065 (ubr1∆).

Sequence IAIAGTGQIEGLLDYMR [COR1] gave a protein stability index (doa10∆) of 3.37 ± 0.088, a protein stability index (pdr5∆) of 3.54 ± 0.081, a protein stability index (san1∆) of 3.17 ± 0.061 and a protein stability index (ubr1∆) of 3.15 ± 0.057.

Consider KKEEKLNIGKNFAHSDS [SIR4], for which the protein stability index by setting is: (doa10∆) 3.18 ± 0.059; (pdr5∆) 2.97 ± 0.057; (san1∆) 3.12 ± 0.033; (ubr1∆) 3.11 ± 0.037.

Consider QVARTNLDGTKAVKLRK [ROX3], for which the protein stability index is, setting by setting: (doa10∆) 3.03 ± 0.07; (pdr5∆) 3.13 ± 0.063; (san1∆) 2.98 ± 0.051; (ubr1∆) 3.15 ± 0.058.

Regarding GIVETNRPDNKNAQYHL [RPN7], the protein stability index is, setting by setting: (doa10∆) 3.17 ± 0.11; (pdr5∆) 3.21 ± 0.13; (san1∆) 3.4 ± 0.069; (ubr1∆) 3.06 ± 0.054.

GIFIKILNDSLIYHLKD [IRR1]: the protein stability index was found to be 1.54 ± 0.045 (doa10∆), 1.31 ± 0.048 (pdr5∆), 1.69 ± 0.068 (san1∆) and 1.75 ± 0.033 (ubr1∆).

As to ISFRSNLLKNFISSNDA [SNF6], the protein stability index was 2.77 ± 0.12 (doa10∆), 1.75 ± 0.086 (pdr5∆), 2.35 ± 0.21 (san1∆) and 2.27 ± 0.074 (ubr1∆).

For QTQAIAQQQQLSNYPQQ [YGR119C/NUP57], the protein stability index was 2.79 ± 0.058 (doa10∆), 3.15 ± 0.062 (pdr5∆), 2.58 ± 0.048 (san1∆) and 2.97 ± 0.046 (ubr1∆).

For TTTMLQLFSTFDRLNGN [SSN2], the protein stability index (doa10∆) is 3.08 ± 0.076, the protein stability index (pdr5∆) was determined as 3.12 ± 0.073, the protein stability index (san1∆) is 3.28 ± 0.055 and the protein stability index (ubr1∆) was 3.02 ± 0.041.

Regarding IHSGVLSSIESDLKKRE [YMR153W/NUP53], the protein stability index is, setting by setting: (doa10∆) 3.07 ± 0.084; (pdr5∆) 3.17 ± 0.073; (san1∆) 3.1 ± 0.066; (ubr1∆) 3.09 ± 0.074.

Take YITAKNNVVINFKDMSH [PRP8]: the protein stability index reads like this: (doa10∆) 2.26 ± 0.052; (pdr5∆) 2.02 ± 0.047; (san1∆) 2.42 ± 0.063; (ubr1∆) 2.14 ± 0.043.

For the sequence VRRLEAQRNALNDKVRF [RPT6], the protein stability index reads like this: (doa10∆) 2.63 ± 0.1; (pdr5∆) 2.96 ± 0.089; (san1∆) 2.77 ± 0.13; (ubr1∆) 2.7 ± 0.045.

With SRDLDISSSTQCLRFLK [POP6], the protein stability index is 2.46 ± 0.1 (doa10∆), 2.24 ± 0.05 (pdr5∆), 2.7 ± 0.14 (san1∆) and 3.05 ± 0.061 (ubr1∆).

On to TKLRAFVYNKVNETEAI [YGR119C/NUP57], for which the protein stability index runs as follows: (doa10∆) 2.3 ± 0.084; (pdr5∆) 2.69 ± 0.064; (san1∆) 2.68 ± 0.061; (ubr1∆) 2.59 ± 0.059.

For the sequence IRKDPNNLSNQLETLTG [CSE2], the protein stability index (doa10∆) is 2.87 ± 0.11, the protein stability index (pdr5∆) was found to be 2.91 ± 0.098, the protein stability index (san1∆) came to 2.68 ± 0.11 and the protein stability index (ubr1∆) came out at 2.77 ± 0.095.

For QPKAPRAPKVIHGQDFQ [ISW2], the protein stability index by setting is: (doa10∆) 2.88 ± 0.089; (pdr5∆) 3.02 ± 0.097; (san1∆) 2.94 ± 0.05; (ubr1∆) 3.19 ± 0.058.

ELVRLLIIDEIHLLHDD [BRR2] displayed a protein stability index (doa10∆) of 2.17 ± 0.11, a protein stability index (pdr5∆) of 1.63 ± 0.075, a protein stability index (san1∆) of 1.5 ± 0.1 and a protein stability index (ubr1∆) of 1.97 ± 0.063.

Turning to GGCDYIFSLLTGYPDEP [CYT1], the protein stability index by setting is: (doa10∆) 3.42 ± 0.14; (pdr5∆) 3.39 ± 0.15; (san1∆) 2.77 ± 0.081; (ubr1∆) 3.08 ± 0.081.

Source of the values: the supplement of paper PMC9732359.
